This note sets out measurements from US20220073643A1 (NANJING GENSCRIPT BIOTECH, published 2022).

Sequences and labels used below:
B1: 232D7C8 (antibody, V domains shown)
VH: QAYLQQSGAELVRSGASVKMSCKASGYTFTSHNMHWVKQTPGQGLEWIGYIYPGNGGTNYNQKFKGKATLTADTSSSTAYMQISSLTSEDSAVYFCARDYFGNSFAYWGQGTLVTVSA
VL: DILMTQSPSSLTATAGEKVSMSCKSSQSLFNSGNQRNYLTWYQQRPGQPPKLLIYWASTRESGVPDRFTGSGSGTDFTLTISSVQAEDLAVYYCQNDYRYPFTFGAGTKLELK
B2: 243B4F2 (antibody, V domains shown)
VH: QAYLQQSGAELVRSGASVKMSCKASGYTFTSHNLHWVKQTPGQGLEWIGYIYPGNGNTNYNQKFKGKATLTADTSSSTAYMQISSLTSEDSAVYFCTRDYYGNSFAYWGQGTLVTVSA
VL: DIVMTQSPSSLTEKAGERVSMSCKSSQSLFNSGNQKNYLTWYQQKPGQPPKLLIYWASTRESGVPDRFTGSGSGTDFTLTISSVQAEDLAVYYCQNNYWFPFTFGAGTKLELK
B3: 234E1F12 (antibody, V domains shown)
VH: QAYLQQSGAELVRSGASVKMSCKASGYTFTSHNMHWVKQTPRQGLEWIGYIYPGNGDTNYNQKFKGKATLTADTSSSTAYMQISSLTSEDSAVYFCTRDYYGNSFAYWGQGTLVTVSA
VL: DIVMTQSPSSLTEKAGERVSMSCKSSQSLFNSGNQKNYLTWYQQKPGQPPKLLIYWASTRESGVPDRFTGSGSGTDFTLTISSVQAEDLAVYYCQNAYWYPFTFGAGTKLELK
B4: 241H10A1 (antibody, V domains shown)
VH: QVQLQQSGAELVKPGASVKLSCKASGYTFTSFGINWLRQRPEQGLEWIGWIFPGDGNSKYNENFKGKATLTTDKSSSTAYMQVTRLTSEDSAVYFCARFYYGNSFANWGQGTLVTVSA
VL: DIVMTQSPSSLTVTAGEKVTMSCKSSQSLLNSGNQKNYLTWYQQKPGQPPKLLIYWAATRESGVPDRFTGSGSGTDFTLTISSVQAEDLAVYYCQNDYFYPFTFGGGTKLELK
B5: 239H12G9 (antibody, V domains shown)
VH: QAYLQQSGAELVRSGASVKMSCKASGYTFTSHNIHWVKQTPGQGLEWIGYIYPGNGAPNYNQKFRGKATLTADTSSSTAYMQISSLTSEDSAVYFCARDYYGNSFVYWGQGTLVTVSA
VL: DIVMTQSPSSLTEKAGEKVSMSCKSSQSLLNSGNQKNYLTWYQQKPGQPPKLLIYWASTRESGVPDRFTGSGSGTDFTLTISSVQAEDLAVYYCQNDYRYPFTFGAGTKLELK
B6: 233D5E5 (antibody, V domains shown)
VH: QAYLQQSGAELVRSGASVKMSCKASGYTFTSHNMHWVKQTPRQGLEWIGYIYPGNGDTNYNQKFKGKATLTADTSSSTAYMQISSLTSEDSAVYFCTRDYYGNSFAYWGQGTLVTVSA
VL: DIVMTQSPSSLTEKAGERVSMSCKSSQSLFNSGNQKNYLTWYQQKPGQPPKLLIYWASTRESGVPDRFTGSGSGTDFTLTISSVQAEDLAVYYCQNAYWYPFTFGAGTKLELK
B7: 234A10F7 (antibody, V domains shown)
VH: QVQLQQSGAELVKPGASVKLSCKASGYTFTSFGINWLRQRPEQGLEWIGWIFPGDGNSKYNENFKGKATLTTDKSSSTAYMQLTRLTSEDSAVYFCARFYYGNSFAYWGQGTLVTVSA
VL: DIVMTQSPSSLTVTTGQKVTMSCKSSQSLLNSGNQKNYLTWYQQKPGQPPKLLIYWAATRESGVPDRFTGSGSGTDFTLTISSVQAEDLAVYYCQNDYFYPFTFGAGTKLELK
B8: 234C9G5 (antibody, V domains shown)
VH: QAYLQQSGAELVRSGASVKMSCKASGYAFTSHNMHWVKQTPGQGLEWIGYISPGNGYTNYNQKFRGKATLTADTSSSTAYMQIGSLTSEDSAVYFCTRDYYGNSFAYWGQGTLVTVSA
VL: DIVMTQSPSSLTEKAGERVSMSCKSSQSLFNSGNQKNYLTWYQQKPGQPPKLLIYWASTRESGVPDRFTGSGSGTDFTLTISSVQAEDLAVYYCQNNYWFPFTFGAGTKLELK
B9: 240D6F5 (antibody, V domains shown)
VH: QAYLQQSGAELVRSGASVKMSCKASGYTFTSHNMHWVKQTPGQGLEWIGYIYPGNGGTNYNQKFKGKATLTADPSSSTAYMQINSLTSEDSAVYFCTRDYYGNSFAYWGQGTLVTVSA
VL: DIVMTQSPSSLTEKAGERVSMSCKSSQSLFNSGNQKNYLTWYQQKPGQPPKLLIYWASTRESGVPDRFTGSGSGTDFTLTISSVQAEDLAVYYCQNDYRYPFTFGAGTKLELK
B10: 242H12D6 (antibody, V domains shown)
VH: QAYLQQSGAELVRSGASVKMSCKASGYTFTSHNMHWVKQTPGQGLEWIGYIYPGNGGTNYNQKFKGKATLTADTSSSTAYMQINSLTSEDSAVYFCTRDYYGNSFAYWGQGTLVTVSA
VL: DIVMTQSPSSLTEKAGERVSMSCKSSQSLFNSGNQKNYLTWYQQKPGQPPKLLIYWASTRESGVPDRFTGSGSGTDFTLTISSVQAEDLAVYYCQNDYRYPFTFGAGTKLELK
B11: 237D2A4 (antibody, V domains shown)
VH: QVQLKESGPGLVAPSQSLSITCTVSGFSLTSYGVSWVRQPPGKGLEWLGVIWGDGSTNYHSTLISRLRISKDKSKSQVFLKLNSLQTDDTATYYCAKAGRGNALDYWGQGTSVTVSS
VL: DIVMTQSPSSLTVTAGEKVTMSCKSSQSLLNSGNQKNYLTWYQQKPGQPPKLLIYWASTRESGVPDRFTGSGSGTDFTLTISSVQAEDLAVYYCQNDYSFPLTFGAGTKLELK
B12: 240A8E7 (antibody, V domains shown)
VH: QAYLQQSGAELVRSGASVKMSCKASGYTFTNYNIHWVKQTPGQGLEWIGYIYPGNGDNYYNQKFKGKATLTADTSSSTAYMQISSLTSEDSAVYFCARDYYGNSFAYWGQGTLVTVSA
VL: DVVMTQSPSSLTVTAGEKVTMNCKSSQSLLNSGNQKNYLTWYQQKPGQPPKMLIYWASTRESGVPDRFTGSGSGTDFTLTISSVQAEDLAIYYCQNDYYYPFTFGAGTKLELK
B13: 240F8G2 (antibody, V domains shown)
VH: QAYLQQSGAELVRSGASVKMSCKASGYTFTNYNIHWVKQTPGQGLEWIGYIYPGNGGNYYNQKFKGKATLTADTSSSTAYMQISSLTSEDSAVYFCARDYYGNSFAYWGQGTLVTVSA
VL: DIVVTQSPSSLTVTAGEKVTMNCKSSQSLLNSGNQKNYLTWYQQKPGQPPKLLIYWASTRESGVPDRFTGSGSGTDFTLTISSVQAEDLAIYYCQNDYYYPLTFGAGTKLELK
B14: 235A10C9 (antibody, V domains shown)
VH: QAYLQQSGAELVRSGASVKMSCKASGYTFASHNMHWVKQTPGQGLEWIGYIYPGNSGTKYNQKFTGKATLTADTSSSTAYMQITSLTSEDSAVYFCARDYYGNSFAYWGQGTLVTVSA
VL: DIVMTQSPSSLTEKAGEKVSMRCKSSQSLLNSGNQKNYLTWYQQKPGQPPKLLIYWASTRESGVPDRFTGSGSGTDFTLTISSVQADDLAVYYCQNDYMFPFTFGAGTKLELK
B15: 243B4F7 (antibody, V domains shown)
VH: QAYLQQSGAELVRSGASVKMSCKASGYTFTSHNLHWVKQTPGQGLEWIGYIYPGNGNTNYNQKFKGKATLTADTSSSTAYMQISSLTSEDSAVYFCTRDYYGNSFAYWGQGTLVTVSA
VL: DIVMTQSPSSLTEKAGERVSMSCKSSQSLFNSGNQKNYLTWYQQKPGQPPKLLIYWASTRESGVPDRFTGSGSGTDFTLTISSVQAEDLAVYYCQNNYWFPFTFGAGTKLELK
B16: 242F5H2 (antibody, V domains shown)
VH: EVMLVESGGGLVKPGGSLKLSCAASGFTFSSYTVSWVRQTPEKRLEWVATSIVGSTYTYFPDSVKGRFTISRDFAKNTLFLQMSSLRSEDTAMYYCSRLGRGNAMDYWGQGTSVSVSS
VL: DIVMTQSPSSLTVTAGEKVTLNCRSSQSLLNSGNQKNYLTWYQQKPGQPPKLLIYWASTRESGVPDRFTGSGSGTDFTLTISSVQADDLAVYYCQNGYSYPFTFGSGTKLEIK
B17: 232F1E4 (antibody, V domains shown)
VH: QVQLKESGPGLVAPSQSLSITCTVSGFALTTYGVSWVRQPPGKGLEWLGVIWGDGSTHYHSALISRLSIRKDNSKSQVFLKLNSLQTDDTATYYCAKPGRGNAMDYWGQGTSVTVSS
VL: DIVMSQSPSSLTVTAGEKVTMSCKSSQSLLNSGNQKNYLTWYQQKPGQSPKLLIYWASTRESGVPDRFTGSGSGTDFTLTISSMQAEDLAVYYCQNDYIYPLTFGAGTMLELK
B18: 186F7E10 (antibody, V domains shown)
VH: EVMLVESGGGLVKPGGSLKLSCAASRFTLNSYAMSWIRQTPEKKLEWVATITSGVSHTYYFDSVKGRFTISRDTAKNTLNLQMNSLRSEDTAVYYCARLYYGNSLDYWGQGTSVTVSS
VL: DIVMTQSPSSLTVTAGEKVTVSCKSSQSLLNSGNQKNYLTWYQQKPGQPPKLLIYWASTRESGVPDRFTGSGSGTDFTLTISSVQSEDLAVYYCQNNYIYPLTFGAGTTLELK
B19: 234B9D4 (antibody, V domains shown)
VH: EIQLQQSGPDLMKPGSSVKISCTASGYSFTSYYIHWVKQSHGKTLEWIGYIDPFNGGTRYNQKFEGKAALTVDKSSTTAYMHLTSLTSDDSAVYYCASLRFFTYWGQGTLVTVSA
VL: DIVMTQSPSSLTVTAGEKVTMTCKSSQSLLNSGNQENYLTWYQQKPGQPPKLLISRASTRQSGVPDRFTGSGSGTDFTLTISSVQAEDLAVYYCQNDYSYPLTFGAGTKLELK

In the assay the target is human Claudin18.2 (human). In words: cell-based or functional assay.
In the case of B1, the “CDC % Relative activity” value turned out to be 88.9% and the “CDC EC50” value was determined as 1.46 µg/mL.

Turning to B2, the “CDC % Relative activity” value was determined as 134% and the “CDC EC50” value came to 1.05 µg/mL.

As for B3, the “CDC % Relative activity” value amounted to 126% and the “CDC EC50” value was 1.1 µg/mL.

Consider B4, for which the “CDC % Relative activity” value worked out at 625% and the “CDC EC50” value turned out to be 0.225 µg/mL.

As to B5, the “CDC % Relative activity” value came to 102% and the “CDC EC50” value is 1.36 µg/mL.

As for B6, the “CDC % Relative activity” value came out at 87.3% and the “CDC EC50” value came out at 1.49 µg/mL.

On to B7, for which the “CDC % Relative activity” value is 62% and the “CDC EC50” value is 2.1 µg/mL.

As to B8, the “CDC % Relative activity” value was 175% and the “CDC EC50” value is 0.794 µg/mL.

For B9, the “CDC % Relative activity” value came to 119% and the “CDC EC50” value was determined as 1.17 µg/mL.

On to B10, for which the “CDC % Relative activity” value amounted to 112% and the “CDC EC50” value turned out to be 1.26 µg/mL.

Regarding B11, the “CDC % Relative activity” value was determined as 629% and the “CDC EC50” value came out at 0.221 µg/mL.

Turning to B12, the “CDC % Relative activity” value was 120% and the “CDC EC50” value turned out to be 1.16 µg/mL.

As to B13, the “CDC % Relative activity” value is 126% and the “CDC EC50” value worked out at 1.1 µg/mL.

Regarding B14, the “CDC % Relative activity” value came to 137% and the “CDC EC50” value worked out at 1.01 µg/mL.

In the case of B15, the “CDC % Relative activity” value turned out to be 149% and the “CDC EC50” value amounted to 0.941 µg/mL.

As to B16, the “CDC % Relative activity” value worked out at 149% and the “CDC EC50” value came to 0.944 µg/mL.

Consider B17, for which the “CDC % Relative activity” value amounted to 74.9% and the “CDC EC50” value is 1.74 µg/mL.

Consider B18, for which the “CDC % Relative activity” value amounted to 124% and the “CDC EC50” value was 1.27 µg/mL.

With B19, the “CDC % Relative activity” value was determined as 485% and the “CDC EC50” value turned out to be 0.287 µg/mL.
